This is an account of results in patent US20230067757A1 (NOVAROCK BIOTHERAPEUTICS, published 2023).

Experiment [1] deals with human claudin 18 isoform 2 (claudin 18.2) (human). As to the kind of experiment: cell-based or functional assay.
For experiment [2], the target named is T1, human claudin 18 isoform 1 (claudin 18.1) (human, UniProt P56856 1-261).
T1 construct: Recombinant on transfected CHO cells (CHO-CLDN18.1); also called CLDN18.1
As to the kind of experiment: imaging, CHO-CLDN18.1 cells, single concentration (FIG. 3A). The method, then: (§1) The specific cellular binding affinity of anti-Claudin18.2 antibodies was tested on CHO-CLDN18.2 (transfected CHO cell expressing recombinant human CLDN18.2) and CHO-CLDN18.1 (transfected CHO cell expressing recombinant human CLDN18.1) cells. The cells were plated in complete media containing F12 with 10% FBS, then incubated overnight at 37° C., anti-Claudin18.2 antibodies were serial diluted and added to the assay plates, incubated at 4° C. for 2 hours, followed by fixing cells and further staining the cells for 30 minutes with Alexa Fluor® 488 Goat Anti-Human IgG (H+L) secondary antibody, invitrogen Cat #A-11013 for detection. The binding was assessed by imaging the cells and quantifying the fluorescence intensity using a Biotek Cytation.

The target of experiment [3] is T2, human claudin 18 isoform 2 (claudin 18.2) (human).
T2 construct: Recombinant on transfected CHO cells (CHO-CLDN18.2) or endogenous on tumor cell lines PATU8988S, NUGC-4, KATOIII; the cell line is named under assay; also called CLDN18.2
As to the kind of experiment: immunofluorescence imaging, CHO-CLDN18.2 cells, serial dilution. As to the method: as §1

In experiment [4] the target is T2, human claudin 18 isoform 2 (claudin …). The experiment is described as follows: imaging, PATU8988S cells (endogenous CLDN18.2); +++ = EC50 between 2 nM and 20 nM.
The target is the same in experiment [5]. As to the kind of experiment: cell-based or functional assay. The source holds these as a separate data set.
For experiment [6] the target is unchanged. As to the kind of experiment: cell-based or functional assay. The source holds these as a separate data set.
Experiment [7] shares this target. As to the kind of experiment: imaging, PATU8988S cells (endogenous CLDN18.2); ++ = EC50 between 20 nM and 100 nM. As to the method: (§2) Tumor cells were plated in complete media containing RPMI1640 with +10% FBS, then incubated overnight at 37° C., Claudin18.2 antibodies were serial diluted and added to the assay plates, incubated at 4° C. for 2 hours, followed by fixing cells and further staining the cells for 30 minutes with Alexa Fluor® 488 Goat Anti-Human IgG (H+L) secondary antibody (invitrogen Cat #A-11013) for detection. The binding was assessed by imaging the cells and quantifying the fluorescence intensity using a Biotek Cytation.

Experiment [8] shares this target. The experiment is described as follows: imaging, PATU8988S cells (endogenous CLDN18.2); ++++ = EC50 less than 2 nM. The method, then:
as §2

The target of experiment [9] is T1, human claudin 18 isoform 1 (claudin …). As to the kind of experiment: immunofluorescence imaging on CHO cells expressing human CLDN18.1, antibody at 10 µg/ml. As to the method: as §1

Where two headings read alike, the source gives them in different places. A value given as a limit tells only on which side of the number the result lay.

T1 sequence (P56856 whole entry, canonical isoform): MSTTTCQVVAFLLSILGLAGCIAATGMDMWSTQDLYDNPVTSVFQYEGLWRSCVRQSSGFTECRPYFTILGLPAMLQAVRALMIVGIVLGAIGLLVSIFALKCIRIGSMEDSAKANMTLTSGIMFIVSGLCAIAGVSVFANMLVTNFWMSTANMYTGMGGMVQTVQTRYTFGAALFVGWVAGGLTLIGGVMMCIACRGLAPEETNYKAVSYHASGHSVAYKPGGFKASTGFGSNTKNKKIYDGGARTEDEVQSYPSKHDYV

B1: Ms17 (antibody, V domains shown)
VH: EVQLQQSGPELVKPGASVKMSCKASGYTFTNYIIHWVKQKPGQGLEWIGYFNPYNDGIEYSEKFKGKATLTSDKSSSTAYMELSSLTSEDSAVYYCSKLRQERFAYWGQGTLVTVSA
VL: DIQMNQSPSSLSASLGDTITITCHASQNINVWLSWYQQKPGNIPKLLIYKASNLHTGVPSRFSGSGSGTGFTLTISSLQPEDIATYYCQQGQSYPLTFGAGTKLELK
Regarding B1, in experiment [1], the “endocytosis derived cell toxicity EC50, CHO-18.2 cells (anti-IgG Fc-MMAF co-internalization)” value (from here on “endocytosis derived cell toxicity EC50”) amounted to 0.81 nM. Also, in experiment [2], the binding result was “no binding (tested: 10 µg/ml)”. In addition, the EC50 in [3] is 1.4 nM; in [4], 2 to 20 nM.

B2: Ms19 (antibody, V domains shown)
VH: EVQLQQSGPELVKPGASVKMSCKASGYTFTSYVIHWVKQKPGQGLEWIGYINPYNDGSKYNEKFKGKATLTSDKSSSTAYMELSSLTSEDSAVYYCAREGYGKRNALDYWGQGTSVTVSS
VL: DIVMTQSPSSLSVSAGERVTMSCKSSQSLLNSGNQKNYLAWYQQKPGQPPKLLIYGASTRESGVPDRFTGSGSGTDFTLIISSVQVEDLAVYYCQNDHFYPLTFGAGTKLELK
With B2, the “endocytosis derived cell toxicity EC50” value in experiment [1] stood at 1.36 nM. Moreover, the binding result in [2] is reported as “no binding (tested: 10 µg/ml)”. In addition, the EC50 in experiment [3] was 2.3 nM; in experiment [4], 2 to 20 nM.

B3: Ms18 (antibody, V domains shown)
VH: QVQLKESGPGLVAPSQSLSITCTVSGFSLISYGVHWVRQPPGKGLEWLGVIWAGGNTNYNSALMSRLSISKDNSKSQVFLKMNSLQTDDTAMYYCARVYYGNSFDYWGQGTTLTVSS
VL: DIVMTQSPSSLTVTAGEKVTMSCKSSQSLLNSGNQKNYLTWYQQKPGQPPKLLIYWASTRQSGVPDRFTGSGSGTDFSLTISSVQAEDLAVYYCHNDYTYPLTFGAGTKLELK
For B3, the “endocytosis derived cell toxicity EC50” value in experiment [1] stood at 1.39 nM. For the same molecule, in experiment [2], the binding result was “no binding (tested: 10 µg/ml)”. Moreover, the values for the EC50 in experiment [3] and in experiment [4] were 1.3 nM and 2 to 20 nM, respectively.

B4: Ms20 (antibody, V domains shown)
VH: EIQLQQSGPELMKPGASVKISCKASGYSFTSYYMHWVKQSHGKSLEWIGYFDPYNGGTNYNQKFKGKATLTADKSSSTAYMHLSSLTSEDSAVYYCACYRFFAVWGAGTTVTVSS
VL: DIVMTQSPSSLTVTAGEKVTMSCKSSQSLLNSGNQKNYLTWYQQKPGQPPKLLIYWASTRESGVPDRFTGSGSGTDFTLTISSVQAEDLAVYYCQNDYSYPLTFGAGTKLELK
B4: the “endocytosis derived cell toxicity EC50” value in experiment [1] amounted to 1.07 nM. For the same molecule, in experiment [2], the binding result is reported as “no binding (tested: 10 µg/ml)”. Besides, the EC50 in experiment [3] was 1.3 nM; in experiment [4] it was 2 to 20 nM.

B5: Ms21 (antibody, V domains shown)
VH: DVQLVESGGGLVQPGGSRKLSCAASGFTFSTFGMHWVRQAPEKGLEWVAFINGDSSSIYYADTVKGRFTISRDNPKNILFLQMTSLRSEDTAMYYCARFARGNSFDYWGQGTTLTVSS
VL: DIVMTQSPSSLTVTAGEKVTMSCKSSQSLFNSGNQKNYLTWYQQKPWQPPKLLIYWASTRESGVPDRFTGSGSGTDFTLTITSVQTEDLAVYYCQIGYTYPLTFGAGTKLELK
For B5, the “endocytosis derived cell toxicity EC50” value in experiment [1] turned out to be 0.95 nM. Moreover, the binding result in experiment [2] is “no binding (tested: 10 µg/ml)”. In addition, the figures for the EC50 in experiment [3] and in [4] were 1.5 nM and 2 to 20 nM, respectively.

B6: Hu-11 (antibody, V domains shown)
VH: QVHLVQSGAEVKKPGASVKVSCKASGYTFTSYYIHWVRQAPGQGLEWMGIINPSGGNTIYAQKFQGRVTMTRDTSTTTVYVELSSLRSEDTAVYYCARDHYDILTGYYPLYYGMDVWGQGTTVTVSS
VL: SYELTQPLSVSVALGQTARITCGGNNIGSKNVHWYQQKPGQAPVLVIYRDSNRPSGIPERFSGSKSGNTATLTISRAQAGDEADYYCQVWDSSTAVFGGGTQLTAL
Consider B6, for which the “ADCC EC50, CHO-18.2 target cells (mouse FcγRIV reporter bioluminescence)” value (“ADCC EC50, CHO-18.2 target cells” below) in experiment [5] is 1.51 nM. The “endocytosis derived cell toxicity EC50” value in experiment [6] is 1.31 nM. In addition, the EC50 is 17 nM in [3] and 20 to 100 nM in experiment [7].

B7: Ms22 (antibody, V domains shown)
VH: QVQLKESGPGLVAPSQSLSITCTVSGFSLTSNGVHWVRQPPGKGLEWLGVIWAGGSTNYNSALMSRLSISKDNSKSQVFLKMNSLQTHDTAMYYCARDKYDGTGFDYWGQGTTLTVSS
VL: QIVLTQSPAIMSASPGEKVTMTCSASSSVSNMYWYQQKPGSSPRLLIYDTSNLASGVPVRFSGSGSGTSYSLTISRMEAEDAATYYCQQWSSYPYTFGGGTKLEIK
With B7, the “endocytosis derived cell toxicity EC50” value in [1] is 1.61 nM. Also, the binding result in experiment [2] was “no binding (tested: 10 µg/ml)”. Further, the EC50 was 2.6 nM in [3] and 2 to 20 nM in experiment [4].

B8: Hu-10 (antibody, V domains shown)
VH: EVQLSESGGALVQPGESLRLSCAASGFTFSSYAMTWVRQAPGKGLEWVSSLSGSGRSTYYAASIKGRFTISRDNSKNTLYLQMSSLRAEDTAIYYCAKSLSYYHYYFDYWGQGTLVTVSS
VL: DIQLTQSPSFLSASVGDRVPITCRASQDISNYLAWYQQKPGKAPKLLIYSASTLQSGVPSRFSGSGSGTEFTLTISSLQPEDFASYHCQQVKTYPLTFGGGTKVEIK
On to B8, for which, in experiment [5], the “ADCC EC50, CHO-18.2 target cells” value worked out at 1.25 nM. For the same molecule, the “endocytosis derived cell toxicity EC50” value in experiment [6] amounted to 0.85 nM. Moreover, the EC50 was 1.5 nM in [3] and < 2 nM in experiment [8]. For the same molecule, the binding result in experiment [9] is reported as “no binding (tested: 10 µg/ml)”.

B9: Hu-1 (antibody, V domains shown)
VH: QVQLVESGGGVVQPGRSLRLSCAASGFTFSNYGMYWVRQAPGKGLEWVAVIWYDGSNKNYADSVKGRFTISRDNSKNTLNLQMNSLRAEDTAVYYCARRGYDILTGYDYYGMDVWGQGTTVTVSA
VL: QTVVTQEPSFSVSPGGTVTLTCGLSSGSVSTSYYPSWYQQTPGQAPRTLIYRTNTRSSGVPDRFSGSILGNKAALTISGAQAPDESNYYCVLYMGSGIWVFGGGTKLTVL
Consider B9, for which, in experiment [5], the “ADCC EC50, CHO-18.2 target cells” value was found to be 0.77 nM. In addition, the “endocytosis derived cell toxicity EC50” value in [6] amounted to 1.61 nM. Also, the EC50 in experiment [3] was 3.6 nM; in experiment [7] it was 20 to 100 nM. In addition, the binding result in experiment [9] was “no binding (tested: 10 µg/ml)”.

B10: Hu-8 (antibody, V domains shown)
VH: QVQLVESGGGVVQPGRSLRLSCAASGFTFSSYGMHWVRQAPGKGLEWVAVIWYDGSNKKYADSVKGRFTISRDNSKNTLYLQMNSLRAEDTAVYYCARRYDVLTAYPYYFYYNMDVWGPGTTVTVSS
VL: QTVVTQEPSFSVSPGGTVTLTCGLNSGSVSTSYYPSWYQQTPGQAPRTLIYSTNTRSSGVPDRFSGSILGNKAALTITGAQADDESDYYCVLYMGSGIWVFGGGTKLTVL
As for B10, the “ADCC EC50, CHO-18.2 target cells” value in [5] was determined as 1.42 nM. The “endocytosis derived cell toxicity EC50” value in experiment [6] was 1 nM. Besides, the figures for the EC50 in experiment [3] and in [7] were 3.7 nM and 20 to 100 nM, respectively.

B11: Hu-4 (antibody, V domains shown)
VH: QVQLVESGGGVVQPGRSLRLSCAASGFTFSFYGMHWVRQAPGKGLEWVAVIWYDGSNKNYVDSVKGRFTISRDNSKNTLYLQMNSLRAEDTAVYYCARRNYDILTGRDYYGMDVWGQGTTVTVSS
VL: QTVVTQEPSFSVSPGGTVTLTCGLNSGSVSTSYYPSWYQQTPGQAPRTLIYSTNTRSSGVPDRFSGSILGNKAALTITGAQADDDSDYYCVLYMGSGIWVFGGGTKLTVL
As for B11, in [5], the “ADCC EC50, CHO-18.2 target cells” value came out at 2.39 nM. Further, the “endocytosis derived cell toxicity EC50” value in experiment [6] was found to be 1.55 nM. Also, the EC50 in experiment [3] was 5.2 nM; in experiment [7], 20 to 100 nM. Moreover, the binding result in [9] is listed as “no binding (tested: 10 µg/ml)”.

B12: Hu-13 (antibody, V domains shown)
VH: EVQLLESGGGLVQPGGSLRVACAASGFPLRSYAMSWVRQAPGKGLEWVSVTSGSGGSTYYADSVKGRFTISRDNSKSTVYLQMNSLRAEDTAVYYCAKDRGYDILTGYYDYFYGMDVWGQGTTVTVSS
VL: DIQMTQSPSSLSASVGDRVTITCRASQGIRNDLGWFQQKPGKAPKRLIYAASSLQSGVPSRFSGSGSGTEFTLTISSLQPEDFATYYCLQHNSYPYTFGQGTKLEIK
In the case of B12, in [5], the “ADCC EC50, CHO-18.2 target cells” value worked out at 1.17 nM. Also, the “endocytosis derived cell toxicity EC50” value in experiment [6] is 2.16 nM. Also, the EC50 is 5.6 nM in experiment [3] and 20 to 100 nM in [7].
